From PMC7921410, “Structure of mammalian Mediator complex reveals Tail module architecture and interaction with a conserved core” (Nature Communications, 2021)
Values belong to the binder of their own block, whether it stands above or below them.

How the values were obtained:
MED16 = biological target: T1, MED16 (mouse (Mus musculus; endogenous in CH12), UniProt Q6PGF3 1-828); experiment: cryo-EM structure; endogenous mouse Mediator immunopurified from CH12 nuclear extract through 3×FLAG-MED19 or 3×FLAG-MED25; eluted in 50 mM HEPES pH 7.9, 100 mM KCl, 5% glycerol, 1 mM EDTA, 0.005% NP-40; map at 4.0 Å overall, focused refinement of the MED1 and knob/hook ends (6-10 Å); conditions: both partners purified
T1 construct: MED16, Mus musculus, endogenous lower Tail subunit of Mediator; source: endogenous, CH12 mouse B lymphoma nuclear extract; immunopurified as part of Mediator (FLAG M2 agarose, FLAG peptide elution)
T1 sequence (looked up): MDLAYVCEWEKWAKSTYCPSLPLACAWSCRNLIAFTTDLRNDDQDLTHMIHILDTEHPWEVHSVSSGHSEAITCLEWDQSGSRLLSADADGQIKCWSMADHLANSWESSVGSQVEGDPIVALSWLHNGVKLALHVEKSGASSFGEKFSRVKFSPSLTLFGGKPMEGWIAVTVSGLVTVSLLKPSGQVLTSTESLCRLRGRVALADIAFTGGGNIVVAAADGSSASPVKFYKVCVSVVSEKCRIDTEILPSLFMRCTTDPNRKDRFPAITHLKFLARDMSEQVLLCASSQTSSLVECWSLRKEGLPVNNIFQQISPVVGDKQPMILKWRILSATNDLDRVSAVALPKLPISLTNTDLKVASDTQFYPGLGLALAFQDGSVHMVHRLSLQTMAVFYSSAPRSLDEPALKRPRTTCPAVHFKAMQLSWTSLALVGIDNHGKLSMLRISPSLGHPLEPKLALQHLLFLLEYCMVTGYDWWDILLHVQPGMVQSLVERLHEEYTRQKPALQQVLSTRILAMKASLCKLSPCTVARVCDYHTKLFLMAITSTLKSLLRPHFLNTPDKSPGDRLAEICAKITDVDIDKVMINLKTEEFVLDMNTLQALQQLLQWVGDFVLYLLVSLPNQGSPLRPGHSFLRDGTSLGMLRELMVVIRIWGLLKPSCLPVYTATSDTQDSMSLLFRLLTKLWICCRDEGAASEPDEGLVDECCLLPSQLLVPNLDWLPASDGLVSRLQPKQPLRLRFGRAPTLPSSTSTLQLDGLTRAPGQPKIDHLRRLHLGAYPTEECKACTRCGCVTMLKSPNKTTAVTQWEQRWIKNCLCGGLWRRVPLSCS

MED24 = biological target: T2, MED24 (mouse (Mus musculus; endogenous in CH12), UniProt Q99K74 1-987); experiment: as above; conditions: both partners purified
T2 construct: MED24, Mus musculus, endogenous lower Tail subunit of Mediator; source: endogenous, CH12 mouse B lymphoma nuclear extract; immunopurified as part of Mediator (FLAG M2 agarose, FLAG peptide elution)
T2 sequence (looked up): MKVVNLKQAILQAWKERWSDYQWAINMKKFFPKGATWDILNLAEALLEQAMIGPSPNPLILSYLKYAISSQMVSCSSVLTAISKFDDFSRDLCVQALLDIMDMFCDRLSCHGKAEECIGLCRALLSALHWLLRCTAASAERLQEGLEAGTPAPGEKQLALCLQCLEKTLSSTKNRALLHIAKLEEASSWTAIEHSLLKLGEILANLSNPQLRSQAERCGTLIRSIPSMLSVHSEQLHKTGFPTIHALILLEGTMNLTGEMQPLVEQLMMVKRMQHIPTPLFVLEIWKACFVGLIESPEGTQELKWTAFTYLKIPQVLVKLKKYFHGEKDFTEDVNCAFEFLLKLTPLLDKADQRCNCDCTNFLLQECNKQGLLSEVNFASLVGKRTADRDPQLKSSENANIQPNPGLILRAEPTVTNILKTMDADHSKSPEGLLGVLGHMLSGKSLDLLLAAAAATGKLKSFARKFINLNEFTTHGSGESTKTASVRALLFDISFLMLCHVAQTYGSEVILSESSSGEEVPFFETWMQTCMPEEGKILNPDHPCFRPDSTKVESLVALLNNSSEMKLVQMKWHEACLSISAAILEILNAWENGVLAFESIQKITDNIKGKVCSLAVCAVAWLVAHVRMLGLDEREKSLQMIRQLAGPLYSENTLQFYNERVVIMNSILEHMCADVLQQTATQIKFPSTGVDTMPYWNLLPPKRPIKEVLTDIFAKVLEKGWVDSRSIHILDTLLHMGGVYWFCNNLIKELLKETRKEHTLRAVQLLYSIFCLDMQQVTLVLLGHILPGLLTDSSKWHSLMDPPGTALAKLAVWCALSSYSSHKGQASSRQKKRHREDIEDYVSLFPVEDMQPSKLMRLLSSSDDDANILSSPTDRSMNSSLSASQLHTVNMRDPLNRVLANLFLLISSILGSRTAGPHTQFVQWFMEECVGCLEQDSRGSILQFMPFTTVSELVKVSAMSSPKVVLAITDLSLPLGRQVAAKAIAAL

- binding result (MED16): binds
- binding result (MED24): binds
B1: MED15 (natural protein, mouse (Mus musculus; endogenous in CH12), UniProt Q924H2 1-789, looked up)
chain: MDVSGQETDWRSAAFRQKLVSQIEDAMRKAGVAHSKSSKDMESHVFLKAKTRDEYLSLVARLIIHFRDIHNKKSQASVSDPMNALQSLTGGPTPGAAGIGMPPRGPGQSLGGMGGLGAMGQPLPLSGQPPPGTSGMAPHGMAVVSTATPQTQLQLQQVALQQQQQQQQQQQFQQQQAALQQQQQQQQQQQQQQQFQAQQNAMQQQFQAVVQQQQLQQQQQQQHLIKLHHQSQQQQIQQQQLQRMAQLQLQQQQQQQQQQALQAQPPMQQPSMQQPQPPPSQALPQQLSQLHHPQHHQPPPQAQQSPIAQNQPPQIPPQSQSQPLVSQAQALPGPMLYAAQQQLKFVRAPMVVQQPQVQPQVQQVQPQVQPQAAVQAAQSAQMVAPGVQMIAEALAQGGMHVRARFPPTSTMSAGPSSSISLGGQPTTQVSQSSLTMLSSPSPGQQVQTPQSMPPPPQPSPQPGSQPNSNVSSGPAPSPSSFLPSPSPQPSQSPVTARTPQNFSVPSPGPLNTPVNPSSVMSPAGSSQAEEQQYLDKLKQLSKYIEPLRRMINKIDKNEDRKKDLSKMKSLLDILTDPSKRCPLKTLQKCEIALEKLKNDMAVPTPPPPPVLPTKQQDLCQPLLDAVLANIRSPVFNHSLYRTFVPAMMAIHGPPIVSPVVCSRKRRFEEDERQSIPNVLQGEVARLDPKFLVNLDPSHCSNNGTVHLICKLDDKDLPSVPPLELSVPADYPAQSPMWIDRQWQYDANPFLQSVHRCMTSRLLQLPDKHSVTALLNTWAQSIHQACLSAA
notes: MED15, Mus musculus, endogenous lower Tail subunit of Mediator; only the C-terminal portion (from residue 620) is seen in the map; source: endogenous, CH12 mouse B lymphoma nuclear extract; immunopurified as part of Mediator (FLAG M2 agarose, FLAG peptide elution)

- binding result (MED16): binds
- binding result (MED24): binds
B2: MED25 (natural protein, mouse (Mus musculus; endogenous in CH12), UniProt Q8VCB2 1-745, looked up)
chain: MVPGSEGPARAGGLVADVVFVIEGTANLGPYFEELRKHYLLPAIEYFNGGPPAETDFGGDYGGTQYSLVVFNTVDCAPESYVQCHAPTSSAYEFVTWLDGIKFMGGGGESCSLIAEGLSTALQLFDDFKKMREQIGQTHRVCLLICNSPPYLLPAVESTTYSGCTTESLVQKIGERGIHFSIVSPRKLPALRLLFEKAAPPALLEPLQQPADVSQDPRHMVLVRGLVLPVGGSSTSGSLQTKQAVPLPPAPASAATLSAAPPQALPPVPPQYQVPGNLSAAQVAAQNAVEAAKSQKAGLGPRFSPINPLQQAAPGVGPPFSQAPAPPLAPVPPGAPKPPPASQPSLVSTVAPGPVLAAPAQPGAPSLAGTVTPGGVNGPSAAQLGGPALGGQQSVSNKLLAWSGVLEWQEKPKPASVDANTKLTRSLPCQVYVNHGENLKTEQWPQKLIMQLIPQQLLTTLGPLFRNSRMVQFHFTNKDLESLKGLYRIMGNGFAGCVHFPHTAPCEVRVLMLLYSSKKKIFMGLIPYDQSGFVNGIRQVITNHKQVQQQKLEQQRGMGAQQAPPVLGPILEEQARPPQNLLQLRAPQPQPQGAVGASAATGQPQPQGATQAPTGAPQGPPGAAPGPPPSGPILRPQNPGANPQLRSLLLNPAPPQTGVPPPQASLHHLQPPGAPTLLPPHQSMGQPQLGPQLLHPPPAQSWPTQLPQRAPLPGQMLLSGGPRGPVPQPGLQPSVMEDDILMDLI
notes: MED25, Mus musculus, endogenous lower Tail subunit of Mediator; only the N-terminal von Willebrand domain (aa 15-216) is seen in the map; The 3×FLAG tag stands on MED25 only in the MED25-FLAG cell line; in the MED19-FLAG line MED25 is untagged; Images from the datasets were combined for the final map; also called MED25-FLAG; source: endogenous, CH12 mouse B lymphoma nuclear extract; …
